The DeepSol protein solubility set

test: soluble on expression in E. coli; label from the status in PepcDB or PDB records

Row | Sequence | soluble on expression in E. coli
1 | MEYFDMRKMSVNLWRNAAGETREICTFPPAKRDFYWRASIASIAANGEFSLFPGMERIVTLLEGGEMLLESADRFNHTLKPFQPFAFAADQVVKAKLTAGQMSMDFNIMTRLDVCKAKVRIAERTFTTFGSRGGVVFVINGAWQLGDKLLTTDQGACWFDGRHTLRLLQPQGKLLFSEINWLAGHSPDQVQ | soluble
2 | MGVLITGCGSRGDTEPLVALAARLRELGADARMCLPPDYVERCAEVGVPMVPVGRAVRAGAREPGELPPGAAEVVTEVVAEWFDKVPAAIEGCDAVVTTGLLPAAVAVRSMAEKLGIPYRYTVLSPDHLPSEQSQAERDMYNQGADRLFGDAVNSHRASIGLPPVEHLYDYGYTDQPWLAADPVLSPLRPTDLGTVQTGAWILPDQRPLSAELEGFLRAGSPPVYVGFGSGPAPAEAARVAIEAVRAQGRRVVLSSGWAGLGRIDEGDDCLVVGEVNHQVLFGRVAAVVHHGGAGTTTAVTRAGAPQVVVPQKADQPYYAGRVADLGVGVAHDGPTPTVESLSAALATALTPGIRARAAAVAGTIRTDGTTVAAKLLLEAISRQRSSVPAAKLAAALEHHHHHH | soluble
3 | MGSRRYDSRTTIFSPEGRLYQVEYALESISHAGTAIGIMASDGIVLAAERKVTSTLLEQDTSTEKLYKLNDKIAVAVAGLTADAEILINTARIHAQNYLKTYNEDIPVEILVRRLSDIKQGYTQHGGLRPFGVSFIYAGYDDRYGYQLYTSNPSGNYTGWKAISVGANTSAAQTLLQMDYKDDMKVDDAIELALKTLSKTTDSSALTYDRLEFATIRKGANDGEVYQKIFKPQEIKDILVKTGITKKDEDEEADEDMK | soluble
4 | GAHTVDKRFGMDFKEIELIGSGGFGQVFKAKHRIDGKTYVIKRVKYNNEKAEREVKALAKLDHVNIVHYNGCWDGFDYDPETSSKNSSRSKTKCLFIQMEFCDKGTLEQWIEKRRGEKLDKVLALELFEQITKGVDYIHSKKLINRDLKPSNIFLVDTKQVKIGDFGLVTSLKNDGKRTRSKGTLRYMSPEQISSQDYGKEVDLYALGLILAELLHVCDTAFETSKFFTDLRDGIISDIFDKKEKTLLQKLLSKKPEDRPNTSEILRTLTVWKKSPEKNERHTA | soluble
5 | MQIKILATSDMHGYIMPTSYSEKKMDLPFGTAKAATMLKKLRASAKGPVFQIENGDFIQGSPLSYYVRKAETHSVAAITKIINQMNYDVSILGNHEFNYGLDYLKETIASYQQPVLAANILGKDGQPYFGQPYVIIEKQGVKVAILGVTTQYIPHWEQPATVKDLTFKSVVETAAEYVPKLREEADLVVVAYHGGFEKDLETGEPTELLTGENEGYDLLEKVPGIDALVTGHQHREIATKLNGIPVIQPGFRGAFVGEITLEIEPMAKGYHVIGSDAAIHPVGNEQPDTEVLALTTALHDEVEEWLDQPVGNVEGDMTIQNPNAVRLKEHPYIEFINNVQMASSGTDISGTALFNNEGKGFNNQITMRDIITNYIYPNTLAVLRVTGQDLREALEQSATYFVLEKGQPIFNPKYVDPKPQYYNYDMYEGIEYTLDLRQPFGERVTKLNYHGKAVQAEDVLEIVTNQYRAVGGGNYQMFQPEKIIREIQIDMTELIAEYLKKHPIIQASTNDNFKVIW | not soluble
6 | MAHHHHHHSLNVLKDKLSGKNVKIVLPEGEDERVLTAATQLQATDYVTPIVLGDETKVQSLAQKLDLDISNIELINPATSELKAELVQSFVERRKGKATEEQAQELLNNVNYFGTMLVYAGKADGLVSGAAHSTGDTVRPALQIIKTKPGVSRTSGIFFMIKGDEQYIFGDCAINPELDSQGLAEIAVESAKSALSFGMDPKVAMLSFSTKGSAKSDDVTKVQEAVKLAQQKAEEEKLEAIIDGEFQFDAAIVPGVAEKKAPGAKLQGDANVFVFPSLEAGNIGYKIAQRLGGYDAVGPVLQGLNSPVNDLSRGCSIEDVYNLSIITAAQALQEG | soluble
7 | MGSDKIHHHHHHMKNSAPNKDGSIEANLTDLQVQTELYQWLSLVSHQRDKQAFTELFQFFAPKIKRFGMQRLGSNDKANELVQETMSNVWRKAHLYDGEKGAATTWVYTVMRNACFDMLRRIKTRNEQLLGDDIWPVEQALAENNPESETFSDHLMEQHMREHINKLPSSQQTVVKGVYFQSLSQEQLAQQLDVPLGTIKSRLRLALARLKLQMRDEYHD | not soluble
8 | MLKKHLTTQLFQKKKKKKLHLVLDLDHTLLHSVLVSDLSKREKYLLEETDSRQDLWRRNVDGYEFIIKLRPFLHEFLLEANKLFTMHVYTMGSSSYAKQVLKLIDPDKVYFGKRVITREASPFNKSLDLLAADKRRVVIVDDTVHVWPFHKRNLLQITKYVYFKVDGTKWDSYAEAKKDESQSNGSLANVLKFLEDVHKRFEEDLGFKDLRLLIPCRQCCY | soluble
